The target of the test is T1, rat antibody hybridoma clone M7/1 (EMAP II neutralizing M7/1 antibody).
T1 construct: Rat monoclonal IgG from a hybridoma; also called rat monoclonal neutralizing antibody M7
As to the kind of experiment: description in the sequence table.

Consider one molecule from US20200040069A1 (INDIANA UNIVERSITY RESEARCH AND TECHNOLOGY, published 2020).

T1 sequence (VH, as listed by the source, chain 1 of 2): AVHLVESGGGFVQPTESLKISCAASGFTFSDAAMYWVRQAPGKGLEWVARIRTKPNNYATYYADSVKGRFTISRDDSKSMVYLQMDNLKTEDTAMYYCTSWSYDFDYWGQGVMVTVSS
T1 sequence (VL, as listed by the source, chain 2 of 2): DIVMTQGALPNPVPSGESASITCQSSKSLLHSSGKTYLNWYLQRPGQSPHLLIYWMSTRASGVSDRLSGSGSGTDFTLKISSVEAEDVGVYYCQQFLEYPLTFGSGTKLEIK

B1: Peptide 2 (QQSIAGSADSKPIDVSR) (peptide)
peptide: QQSIAGSADSKPIDVSR
notes: Synthetic peptide from human EMAP II; also called ID NO; 12
As to B1, the binding result is “binds”.
